Patent US20200024360A1 (Janssen / Centocor, published 2020)
Where two headings read alike, the source gives them in different places.

Experiments:
[1] = target: T1, human PSMA (prostate specific membrane antigen), full length (human, UniProt Q04609 1-750); assay: flow cytometry, bispecific antibody titrated on LNCaP cells (human PSMA), anti-human kappa light chain PE
T1 construct: On LNCaP or C4-2B cells (endogenous) or transduced HEK293F cells; also called FOLH1_HUMAN; hPSMA
Method: (§1) PSMA×CD3 bispecific antibodies were tested for binding to PSMA positive cell lines LNCAP, human PSMA-HEK, Chimpanzee-PSMA-HEK and Cynomolgous monkey PSMA-HEK. To assess the binding capabilities of the PSMA bispecific antibodies, the cell-binding assay was utilized (described previously). Briefly, PSMA expressing tumor cells are bound by bispecific antibodies at known concentrations and the bound antibody is detected by an anti-human kappa light chain PE conjugated detection reagent (Invitrogen). The Mean Fluorescents Intensity (MFI) is the measure of bound bispecific antibody. The MFI is converted to a relative EC₅₀. EC₅₀ is a commonly used dose-response curve, where the half maximal effective concentration or the EC₅₀ point is defined as the inflection point of the curve. EC₅₀ s were determined by measuring cell bound bispecific and known concentrations. […] The dose response curves were then diluted down to that of background or no bispecific binding. The inflection point of this curve reflects the EC₅₀ point. The calculated EC₅₀ is determined by taking the ug/ml amount of bispecific antibody at the EC₅₀ point and converting it to a molarity value based on the MW of the bispecific antibody. Bispecific antibodies were normalized for protein concentration and then incubated with the same number of cells expressing either human or cyno PSMA. The MFI at each concentration was collected by flow cytometry and plotted as a function of concentration. Data was transformed via log 10 and then plotted. Nonlinear regression of binding curves was done to determine EC₅₀ s. These relative values were used for ranking PSMA binding to target cells.

[2] = target: T1, human PSMA (prostate specific membrane …); assay: as above; remark: listed apart in the source
Method: as §1, with “The MFI at each concentration was collected by flow cytometry and plotted as a function of concentration. Data was transformed via log 10 and then plotted. Nonlinear regression of binding curves was done to determine EC₅₀ s. These relative values were used for ranking PSMA binding to target cells.” left out

[3] = target: T2, recombinant chimpanzee PSMA extracellular domain (ECD) protein (Pan troglodytes, UniProt Q04609 44-750 (human entry)); assay: SPR ProteOn
T2 construct: also called Chimp PSMA ECD; PSMG8
T2 chain: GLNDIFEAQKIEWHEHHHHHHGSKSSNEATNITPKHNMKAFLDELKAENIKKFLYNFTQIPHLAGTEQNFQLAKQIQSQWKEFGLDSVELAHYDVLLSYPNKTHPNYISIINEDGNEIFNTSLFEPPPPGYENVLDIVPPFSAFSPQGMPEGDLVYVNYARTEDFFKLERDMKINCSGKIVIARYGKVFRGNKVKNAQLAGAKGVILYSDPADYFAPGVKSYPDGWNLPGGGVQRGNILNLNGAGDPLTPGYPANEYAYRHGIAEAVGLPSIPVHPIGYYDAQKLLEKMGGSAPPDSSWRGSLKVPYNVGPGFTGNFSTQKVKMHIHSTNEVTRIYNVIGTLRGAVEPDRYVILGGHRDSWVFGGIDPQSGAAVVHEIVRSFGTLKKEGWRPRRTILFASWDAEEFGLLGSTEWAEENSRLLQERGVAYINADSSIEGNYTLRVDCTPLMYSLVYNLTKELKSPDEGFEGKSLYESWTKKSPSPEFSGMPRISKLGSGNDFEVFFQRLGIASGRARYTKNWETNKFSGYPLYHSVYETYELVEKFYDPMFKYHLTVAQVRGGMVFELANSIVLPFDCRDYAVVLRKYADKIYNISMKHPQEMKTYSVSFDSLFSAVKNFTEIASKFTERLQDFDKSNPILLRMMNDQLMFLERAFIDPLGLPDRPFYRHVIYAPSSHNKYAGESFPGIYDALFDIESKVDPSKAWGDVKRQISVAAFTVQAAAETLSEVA

[4] = target: T3, recombinant human PSMA extracellular domain (ECD) protein (human, UniProt Q04609 44-750); assay: SPR ProteOn
T3 construct: also called human PSMA ECD

T1 sequence (Q04609 whole entry): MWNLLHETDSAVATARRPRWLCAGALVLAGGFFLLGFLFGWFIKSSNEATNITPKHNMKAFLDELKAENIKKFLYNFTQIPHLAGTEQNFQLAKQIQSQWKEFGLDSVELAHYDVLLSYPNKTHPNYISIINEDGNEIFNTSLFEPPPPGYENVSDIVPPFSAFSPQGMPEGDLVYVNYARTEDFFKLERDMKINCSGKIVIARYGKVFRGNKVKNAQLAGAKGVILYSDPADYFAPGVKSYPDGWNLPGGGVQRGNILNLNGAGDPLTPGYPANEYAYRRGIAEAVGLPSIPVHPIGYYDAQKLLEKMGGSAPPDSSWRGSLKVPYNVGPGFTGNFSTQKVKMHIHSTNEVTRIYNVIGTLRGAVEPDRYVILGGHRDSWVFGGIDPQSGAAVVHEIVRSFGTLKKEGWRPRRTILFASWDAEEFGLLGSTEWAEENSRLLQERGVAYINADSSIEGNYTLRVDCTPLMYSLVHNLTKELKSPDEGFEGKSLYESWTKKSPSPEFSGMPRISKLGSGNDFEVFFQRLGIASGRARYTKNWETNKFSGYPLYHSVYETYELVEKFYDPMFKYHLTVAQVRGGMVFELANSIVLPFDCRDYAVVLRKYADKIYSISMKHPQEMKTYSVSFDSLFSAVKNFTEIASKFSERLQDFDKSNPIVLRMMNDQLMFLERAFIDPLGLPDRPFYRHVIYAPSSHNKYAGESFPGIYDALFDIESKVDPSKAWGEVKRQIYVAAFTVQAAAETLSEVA

B1: PS3B4 (M52) (bispecific antibody, human IgG4 S228P, kappa, lambda, F234A L235A)
heavy chain, PSMA arm (PSMB122): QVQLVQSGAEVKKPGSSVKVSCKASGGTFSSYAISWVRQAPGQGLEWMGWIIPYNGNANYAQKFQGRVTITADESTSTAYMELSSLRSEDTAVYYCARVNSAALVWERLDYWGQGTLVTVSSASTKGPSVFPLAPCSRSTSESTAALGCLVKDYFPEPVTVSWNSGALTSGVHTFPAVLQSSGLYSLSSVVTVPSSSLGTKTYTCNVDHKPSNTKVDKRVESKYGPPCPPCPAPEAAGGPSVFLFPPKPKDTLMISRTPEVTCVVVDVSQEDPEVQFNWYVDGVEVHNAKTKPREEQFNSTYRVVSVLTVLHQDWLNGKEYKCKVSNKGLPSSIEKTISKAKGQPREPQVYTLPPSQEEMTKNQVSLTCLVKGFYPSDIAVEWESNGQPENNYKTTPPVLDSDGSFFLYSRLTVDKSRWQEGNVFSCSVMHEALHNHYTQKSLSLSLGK
light chain, PSMA arm (PSMB122): DIQMTQSPSSLSASVGDRVTITCRASQSIDRWLNWYQQKPGKAPKLLIYAASSLQSGVPSRFSGSGSGTDFTLTISSLQPEDFATYYCQQSPRYPLTFGQGTKVEIKRTVAAPSVFIFPPSDEQLKSGTASVVCLLNNFYPREAKVQWKVDNALQSGNSQESVTEQDSKDSTYSLSSTLTLSKADYEKHKVYACEVTHQGLSSPVTKSFNRGEC
heavy chain, CD3 arm (CD3B217): EVQLLESGGGLVQPGGSLRLSCAASGFTFNTYAMNWVRQAPGKGLEWVARIRSKYNNYATYYADSVKGRFTISRDNSKNTLYLQMNSLRAEDTAVYYCVKHGNFGNSYVSWFAYWGQGTLVTVSSASTKGPSVFPLAPCSRSTSESTAALGCLVKDYFPEPVTVSWNSGALTSGVHTFPAVLQSSGLYSLSSVVTVPSSSLGTKTYTCNVDHKPSNTKVDKRVESKYGPPCPPCPAPEAAGGPSVFLFPPKPKDTLMISRTPEVTCVVVDVSQEDPEVQFNWYVDGVEVHNAKTKPREEQFNSTYRVVSVLTVLHQDWLNGKEYKCKVSNKGLPSSIEKTISKAKGQPREPQVYTLPPSQEEMTKNQVSLTCLVKGFYPSDIAVEWESNGQPENNYKTTPPVLDSDGSFLLYSKLTVDKSRWQEGNVFSCSVMHEALHNHYTQKSLSLSLGK
light chain, CD3 arm (CD3B217): QAVVTQEPSLTVSPGGTVTLTCRSSTGAVTTSNYANWVQQKPGQAPRGLIGGTNKRAPGTPARFSGSLLGGKAALTLSGAQPEDEAEYYCALWYSNLWVFGGGTKLTVLGQPKAAPSVTLFPPSSEELQANKATLVCLISDFYPGAVTVAWKADSSPVKAGVETTTPSKQSNNKYAASSYLSLTPEQWKSHRSYSCQVTHEGSTVEKTVAPTECS
notes: also called PSMB122 x CD3B217
For B1, the “EC50 (read off the curve)” value [1] was roughly 2 µg/mL.

B2: PS3B8 (M81) (bispecific antibody, human IgG4 S228P, kappa, lambda, F234A L235A)
heavy chain, PSMA arm (PSMB126): not shown
light chain, PSMA arm (PSMB126): not shown
heavy chain, CD3 arm (CD3B217): EVQLLESGGGLVQPGGSLRLSCAASGFTFNTYAMNWVRQAPGKGLEWVARIRSKYNNYATYYADSVKGRFTISRDNSKNTLYLQMNSLRAEDTAVYYCVKHGNFGNSYVSWFAYWGQGTLVTVSSASTKGPSVFPLAPCSRSTSESTAALGCLVKDYFPEPVTVSWNSGALTSGVHTFPAVLQSSGLYSLSSVVTVPSSSLGTKTYTCNVDHKPSNTKVDKRVESKYGPPCPPCPAPEAAGGPSVFLFPPKPKDTLMISRTPEVTCVVVDVSQEDPEVQFNWYVDGVEVHNAKTKPREEQFNSTYRVVSVLTVLHQDWLNGKEYKCKVSNKGLPSSIEKTISKAKGQPREPQVYTLPPSQEEMTKNQVSLTCLVKGFYPSDIAVEWESNGQPENNYKTTPPVLDSDGSFLLYSKLTVDKSRWQEGNVFSCSVMHEALHNHYTQKSLSLSLGK
light chain, CD3 arm (CD3B217): QAVVTQEPSLTVSPGGTVTLTCRSSTGAVTTSNYANWVQQKPGQAPRGLIGGTNKRAPGTPARFSGSLLGGKAALTLSGAQPEDEAEYYCALWYSNLWVFGGGTKLTVLGQPKAAPSVTLFPPSSEELQANKATLVCLISDFYPGAVTVAWKADSSPVKAGVETTTPSKQSNNKYAASSYLSLTPEQWKSHRSYSCQVTHEGSTVEKTVAPTECS
notes: also called PSMB126 x CD3B217
For B2, the “EC50 (read off the curve)” value [1] was roughly 0.1 µg/mL.

B3: PS3B12 (M87) (bispecific antibody, human IgG4 S228P, kappa, lambda, F234A L235A)
heavy chain, PSMA arm (PSMB130): not shown
light chain, PSMA arm (PSMB130): not shown
heavy chain, CD3 arm (CD3B217): EVQLLESGGGLVQPGGSLRLSCAASGFTFNTYAMNWVRQAPGKGLEWVARIRSKYNNYATYYADSVKGRFTISRDNSKNTLYLQMNSLRAEDTAVYYCVKHGNFGNSYVSWFAYWGQGTLVTVSSASTKGPSVFPLAPCSRSTSESTAALGCLVKDYFPEPVTVSWNSGALTSGVHTFPAVLQSSGLYSLSSVVTVPSSSLGTKTYTCNVDHKPSNTKVDKRVESKYGPPCPPCPAPEAAGGPSVFLFPPKPKDTLMISRTPEVTCVVVDVSQEDPEVQFNWYVDGVEVHNAKTKPREEQFNSTYRVVSVLTVLHQDWLNGKEYKCKVSNKGLPSSIEKTISKAKGQPREPQVYTLPPSQEEMTKNQVSLTCLVKGFYPSDIAVEWESNGQPENNYKTTPPVLDSDGSFLLYSKLTVDKSRWQEGNVFSCSVMHEALHNHYTQKSLSLSLGK
light chain, CD3 arm (CD3B217): QAVVTQEPSLTVSPGGTVTLTCRSSTGAVTTSNYANWVQQKPGQAPRGLIGGTNKRAPGTPARFSGSLLGGKAALTLSGAQPEDEAEYYCALWYSNLWVFGGGTKLTVLGQPKAAPSVTLFPPSSEELQANKATLVCLISDFYPGAVTVAWKADSSPVKAGVETTTPSKQSNNKYAASSYLSLTPEQWKSHRSYSCQVTHEGSTVEKTVAPTECS
notes: also called PSMB130 x CD3B217
With B3 the “EC50 (read off the curve)” value [2] was roughly 1 µg/mL.

B4: PSMB130 (antibody, human IgG4 S228P, kappa, F234A L235A, V domains shown)
VH: QVQLVQSGAEVKKPGSSVKVSCKASGGTFKSYDISWVRQAPGQGLEWMGGIIPIEGTANYAQKFQGRVTITADESTSTAYMELSSLRSEDTAVYYCARDYPAGYGFDYWGQGTLVTVSS
VL: not shown
notes: IgG4 with S228P, F234A, L235A; also called mAb of Fab PSMB86
B4 gave a Kd [3] of 31.7 nM and a Kd [4] of 29.6 nM.
